Reference: patent publication US20240181074A1, “PEGYLATED T CELL ENGAGER WITH DUAL SPECIFICITIES TO CD3 AND CD19” (Shenzhen Enduring Biotech, Ltd., priority 2021, published 2024)

What was measured:
EAE model mice = assay: EAE model, head-to-head comparison of JY108 to MEDI-551 (Example 9); type: in vivo
Description: MEDI-551 (Inebilizumab) is an anti-CD19 monoclonal antibody currently under clinical trial for treating MS. […] For head-to-head comparison, EAE model in this experiment were constructed in the same way as described in Example 8 and MEDI-551 treated group (a single i.v. injection of 250 μg/animal) was included in the experiment. On Day 12 after generation of the EAE model, the male animals were randomly grouped into 4 groups (n=7): MEDI-551 treated group, model group (control), two groups treated with JY108 at 60 μg/animal and at 80 μg/animal with 5 doses in total (Day 14, Day 15, Day 17, Day 19 and Day 21). The clinical scores were recorded for each animal on daily basis (except Day 18). Female mice were grouped similarly (n=7) after day 11 of EAE induction and treated with JY108 (30, 50, 75 μg/animal) and MEDI551 (250 μg/animal).

CD19^+ B cells = assay: Spleen B cells in the EAE experiment (flow cytometry); type: in vivo, mice; conditions: day 15, MEDI-551 treated group
Text: To better illustrate the mechanism of JY108 in ameliorating EAE symptoms, the spleen B cells in the EAE experiment were examined on day 15, using the same method described in Example 9.

Breg cells = Breg cells in spleen of EAE animals (PE-anti-CD19 / FITC-B10 flow cytometry); type: in vivo, mice
Text: The seemed contradictory results prompted us to see what happened to other related immune cells after JY108 treatment. Using the method described in Example 5, the spleen cells derived from the animals in the EAE experiment were double stained with PE-anti-CD19 and FITC-B10 (a marker for Breg) and counted via flowcytometry.

MOG specific B cells = assay: ELISPOT of residual MOG specific B cells in spinal cord; type: in vivo, mice
Description: Since MOG specific B cells are the major source of autoantibodies for CNS myelination damage, ELISPOT was performed by following the protocol provided by the vendor's manual to compare the residual MOG specific B cells in the spinal cord of the tested animals.

EAE model = conditions: cited from earlier work

B1: MEDI-551: anti-CD19 monoclonal antibody currently under clinical trial for treating MS (antibody, chains of the INN, looked up, V domains shown)
VH: EVQLVESGGGLVQPGGSLRLSCAASGFTFSSSWMNWVRQAPGKGLEWVGRIYPGDGDTNYNVKFKGRFTISRDDSKNSLYLQMNSLKTEDTAVYYCARSGFITTVRDFDYWGQGTLVTVSS
VL: EIVLTQSPDFQSVTPKEKVTITCRASESVDTFGISFMNWFQQKPDQSPKLLIHEASNQGSGVPSRFSGSGSGTDFTLTINSLEAEDAATYYCQQSKEVPFTFGGGTKVEIK
EAE model mice; female mice, 250 μg/animal
  EAE symptoms (clinical score): not effective
EAE model mice; male mice, single i.v. 250 μg/animal on day 14
  EAE symptoms (clinical score): did not show any therapeutic effect
CD19^+ B cells
  CD19^+ B cells in spleen: almost completely eliminated
Breg cells
  effect on Breg cells: little effect
MOG specific B cells
  MOG specific B cells in the spinal cord: depleted MOG specific B cells effectively
EAE model; administered on day 7 after EAE induction (Chen 2014)
  EAE symptoms of male mice: able to delay the EAE symptoms
EAE model; pre-clinical results
  efficacy in EAE model versus anti-CD20 antibody: more effective than marketed monoclonal anti-CD20 antibody
